Experiment: yeast display, Sf9 membrane polyspecificity reagent, FACS + sequencing; frameworks hold sequencing errors
Method in brief: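 A synthetic nanobody library was expressed on Saccharomyces cerevisiae BJ5465 by galactose induction for 36–48 hours. The library was stained for 1 hour at 4 °C with 10% biotinylated, detergent-solubilized Sf9 membrane reagent and enriched with streptavidin microbeads before FACS. Low and high (top ~1%) gates were set on anti-HA fluorescence for expression and streptavidin fluorescence for reagent binding, and each polyreactivity label reflects the gate of origin.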

Sequence	polyreactivity (PSR sort gate)
QVQLVESGGGLVQAGGSLRLSCAASGRIFDGYAIGWYRQAPGKERELVAAISSRGGRTYYADSVKGRFTISRDNAKNTVYLQMNSLKPEDTAVYYCAAVDPYGEGDYWGQGTQVTVSS	low polyreactivity
QVQLVESGGGLVQAGGSLRLSCAASGSIFGYNAMGWYRQAPGIERELVAAISSGGNTYYADSVKGRFTISRDNAKNTVYLQMNSLKPEDTAVYYCAVDYYYGFDWGQGTQVTVSS	low polyreactivity
QVQFVESGGGLVQAGGSLRLSCAASGSIFSSYAMGWYRQAPGKERELVAVINSGGSTNYADSVKGRFTISRDNAKNTVYLHMNSLKPEDTAVYYCNAYGGTFHNTAAEFDYWGQGTQVTVSS	low polyreactivity
QVQLVESGGGLVQAGGSLRLSCAASGSIFSLYAMGWYRQAPGKERELVATISKSGGSTYYADSVKGRFTISRDNAKNTVYLQMNSLKPEDTAVYYCAARLTYTGGQGAYDYWGQGTQVTVSS	high polyreactivity
QVQLVESGGGLDQAGGSLRLSCAASGRIFEYNAMGWYRQAPGKERELVAAINYNDVSTYYADSVKGRFTISRDNAKNTVFFQINSLKPEDTAVYYCNVYGDKWSAAYGEYVYWGQGTQVTVSS	low polyreactivity
QVQLVESGGGLVQAGGSLRLSCAASGSTFIDYGMGWYRQAPGKERELVAAIDLDSGDTYYADSVKGRFTISRENAKNTVYLQMNSLKPEDTAVYYCAAQYWYRYNYWGQGTQVTVSS	low polyreactivity
QVQLVESGGGLVQAGGSLRLSCAASGRTLVRYAMGWYRQAPGKEREFVAGISYSGGSTYYADSVKGRFTISRDNAKNTVYLQMNSLKPEDTAVYYCAATTRGARKSGGNYWGQGTQVTVSS	high polyreactivity
QVQLVESGGGLVQAGGSLRIICAASGRTFSYYAMGWYRQAPGKERELVAAITAGGNTYYADSVKGRFTISRDNAKNTVYLQMNSLKAEDTAVYYCAATYYWAWGGVYHSEFDYWGQGTQETVSS	low polyreactivity
QVQLVESGGGLVQAGGSLRLSCAASGRIIRKNTMGWYRQAPGKERELVAAIRWSTTSTYYADSVKGRFTISRDNAKNTVYLQMHSLKPEDTAVYYCAARRRDSYGNIYDYWGQGTQVTVSS	high polyreactivity
QVQLVESGGGLVQAGGSLRLSCAASGFTLIHYAMGWYRQAPGKERELVAGITTSGGSTYYADSVKGRFTISRDNAKNTVYLQMNSLKPEDTAVYYCAASSNTRGDYWGQGTQVTVSS	high polyreactivity
QVQLVESGGGLVQAGGSLRLSCAASGRIFLSYAMGWYRQAPGKERELVAAIRSTGTRTYYADSVKGRFTISRDNAKNTVYLQMNSLKPEDTAVYYCAVGDYGLWSYDYWGQGTQVTVSS	low polyreactivity
QVQLVESGGGLVQAGGSLRLSCAASGSTFRRNAMGWYRQAPGKERELVAAITVSGGSTYYADSVKGRFTISRDNAKNTVYLQMNSLKPEDTAVYYCAAEPSQYSWYTTYYYWGQGTQVTVSS	high polyreactivity
QVQLVESGGGVVQAGGSLRLSCAASGRIFGYYAMGWYRQAPGTERELVAVISSGGSTYADSVKGRFTISRDNAKNPVYLQMNSLKPEDTAVYYCAARHYWSSYRTSRSRYDYWGQGTQVTVSS	high polyreactivity
QVQLVESGGGLVQAGGSLRLSCAASGSIFGTNAMGWYRPAPGKERELVAAINWSGGTTYYADSVKGRFTISRDNAKNTVYLQMNSLKPEDTAVYYCNADIEKSYNYWGQGTQVTVSS	low polyreactivity
QVPLVESGGGLVQAGGSLRLSCAASGRTFPRYAMGWYRQAPGKERELVATISSGGSTNYADSVKGRFTISLDNAKNTVYLQMNSLKPEDTAVYYCAARYGRTYTRVGYWGQGTQVTVSS	high polyreactivity
QVQLVESGGGLVQAGGSLRLSCAASGLTLYYNAMGWYRQAPGKERELVAAISGSGGNTYYADSVKGRFTISRDNAKNTVYLQMNSLKPEDTAVYYCAKVVRVSHRYYYWGQGTQVTVSS	high polyreactivity
QLQLVETGGGLVQAGGSLRLSCAASGRIYYGYAMGWYRPAPGKERELVAAISWSGGSTYYADSVKGRFTISRDNAKNTVYLQMNSLKPEDTAVYYCARDAPYLYRAFDYWGQGTQVTVSS	high polyreactivity
